# Tested on: K4 kissing-loop RNA reporter
# Experiment: apparent KD of K4 kissing-loop reporter; higher = weaker reporter binding
# Conditions: Eterna round: R107
# Protocol: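 RNA-MaP round R107: designed RNA switches with theophylline, tryptophan, arginine or FMN aptamers are transcribed on-chip within common flanks. They are titrated with a labelled K4 kissing-loop RNA reporter in RNA-MaP buffer (100 mM Tris pH 7.5, 80 mM KCl, 4 mM MgCl2), without ligand or with the indicated ligand. Median apparent KD per design.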
# [1] = input ligand: theophylline 20 uM
# [2] = input ligand: tryptophan 2.4 mM
# 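Also: bound reporter read as fluorescence of individual clusters on recovered sequencing chips by microscopy, with normalized cluster intensities fitted with a binding model.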
Sequence,apparent KD of K4 kissing-loop reporter (input ligand: FMN 200 uM),apparent KD of K4 kissing-loop reporter (input ligand: arginine 13.2 mM),apparent KD of K4 kissing-loop reporter (input ligand: none),apparent KD of K4 kissing-loop reporter [1],apparent KD of K4 kissing-loop reporter [2]
UUUGUAGUGGGAGGAUAUCCUAAUAUGGGUGAUGUUAGCGAUGUUGAAGGUGUAGUGAUGUUAUGCGGAGAAGGCCCACUGUAGA [BDazzled - #20 - Exc. FMN B],543 nM,221 nM,189 nM,614 nM,253 nM
AGCAAUAUCACGGCCGCCACUGAAUAUUGUUUUUAUAUUUAGAAAUCUUGCCAGUGAUGUUGGUUCAGGACCGGGUGAGUUAAUA [JR_SSTryptoB_Sub005],435 nM,430 nM,466 nM,450 nM,401 nM
GUAGAUAGGCUACAUCUCUAGUCUAAAGACUAGGAUAUCAGGAAACUGAGAAGGAGUCUCAUUGGAGUGAUGUUCCAAGAAUAAU [KL-SSFMN-A16],100 nM,106 nM,89.2 nM,109 nM,71.7 nM
UGUCUACCGGGAAGGAGCGUGAAUGAUAAUGGAUAUAGUGAUGUUAUAUAUACGAACGAAUCGCAGGUAGGUCGCCCGGAUCCCU [SSArgB.W],431 nM,419 nM,606 nM,431 nM,481 nM
UGACUGGACUGAAGGAGCGCUGAAGGAGCGUAAGCAGUGAUGUUGCUUACAGGUAGGUCGCAGCAGGUAGGUCGCAGUCUAGUCU,93.5 nM,78.7 nM,93.4 nM,90 nM,99.6 nM
AGUAAUAUCACGGCCGCCACUGAUUAUUGUUUUUAUAGUUAUAAAUCUUGCCAGUGAUGUUGGUUCAGGACCGGGUGAGUUAAUA [JR_SSTryptoB_Sub001],429 nM,469 nM,584 nM,727 nM,299 nM
AUAGGAUUGCGAGGAUAUCCUUCCCACGUCGAAGUACCGUGCUUGAUGGAGUGAUGUUCGAUCAGAGGAGAAGGUGCGGUUUUGU [Same State FMN B GF24],292 nM,593 nM,942 nM,732 nM,944 nM
GGAGCAGGUGAAGGAUAUCCCGGGCCAGAGUGAUGUUCUGGAUCCCUUGCCGUUUCUAAACGGGUGGGAGAAGGUCACUGAUAAG [Bibimati],132 nM,154 nM,234 nM,180 nM,164 nM
GCCAGUGCACGAAGGAGCGCCGUGACAGGUUACUGCCUUGGGCAGUGAUGUUGCUCAAUCUGGCAGGUAGGUCGCGUGCACUGGC,169 nM,147 nM,170 nM,175 nM,177 nM
GAUUGUGAUGGAAACAUCGCAAUCUCUGAAGGAGCGCGUGAAAACGCAGGUAGGUCGCAGGACGACAAAGACAGUGAUGUUGUCA [Ex Arginine A K4 1],335 nM,319 nM,311 nM,369 nM,380 nM
UGUCAUUGGUCGGCCGCCACUUCAUGUAGAGUGAUGUUUUGUAGGACGGAUCGAAAGAUCUGUCGGAGGACCGGGACCGAUGACU [FiskerMod 16 - Jieux - Same State - Tryptophan B],121 nM,119 nM,134 nM,266 nM,1690 nM
GUUAAUAGUAGUGAUGUUACAAUAGUUUGUGAGGAUAUCCCGAAAGGGAGAAGGCACAAACAAAUAGAUUCUCACAAAUAUUUAC [FMN A exclusion],191 nM,185 nM,243 nM,238 nM,146 nM
AAAGACUGACUGCAAUUAGCAGUCAGUCAACGAGGACCGGUACGGCCGCCACUCGGGUCCUAGAGUGAUGUUCUAAUAAUAUAAA [AK1.2 SS Tryptophan A],374 nM,495 nM,319 nM,490 nM,207 nM
GCCGUAGAUUGAAGGAGCGGGCCGUAGUGAUGUUACGCCAAUUUAUCUUUUCUUGAUGUGGCCCAGGUAGGUCGCAAUCUACGGC,241 nM,204 nM,216 nM,207 nM,193 nM
UUUAAAUAUAGUGAUGUUAUAUAACAAUGACGAGGACCGGUACGGCCGCCACUCGAGAGAGAUAAUGGUCAUACAAAUGUAUGUC [AstrosSSTryA#7],799 nM,706 nM,1100 nM,830 nM,564 nM
GGGAGUAGUGCGGCCGCCACUGAGAAAGAAGAAGAAUAUAGUGAUGUUAUAUAGGAAAGGAAGAAUAGGACCGGGCAUUAGAUUU [SSTRyptB.J],229 nM,173 nM,263 nM,238 nM,257 nM
AAAAUAAACCAGUGAUGUUGGUGUCCAGAUACCAGCGAUAAAAUUCGCCCUUGGCAGCUGUGGACGUACAAAAUAAGUACGUCCU [MatMod 3 - Jieux - Same State - Theophylline A],734 nM,555 nM,837 nM,525 nM,674 nM
GGGAAGGACGGAGGAUAUGCACUGAGGAGGAGAAUAUAGUGAUGUUAUAUAAGAGGAAGGAGCUGAGUAGAAGGCCGAGGAAAGG [whbob_SS_FMNB__2th207],147 nM,87.9 nM,134 nM,92.4 nM,129 nM
UUAUAUAUAUCAGAUACCAGUAUAAUGGAAACAAAUUAUGUUAUGAGUGAUGUUCAUGUAUGCCCUUGGCAGCUGGUAUGGGUUU [KL-XTheo-B20],356 nM,322 nM,362 nM,439 nM,311 nM
CCAUUCAUUUACGAUACCAGUCUAAUAUAUUUAAUCAAAACCCUCGCCGAGUGAUGUUCGGACCCUUGGCAGCGUCUGCGAGAGG [oookmullin],596 nM,464 nM,598 nM,535 nM,452 nM
GCUAUAGUGUUAGAUACCAGUAUCCUGCAAAGCCAUCAAAUGCAGUGAUGUUGCAUAAACUACCCUUGGCAGCUAAUUGGGCUCU [theeternabot_exclusion_KL_Theo_B_49],226 nM,201 nM,213 nM,213 nM,187 nM

Sequence,apparent KD of K4 kissing-loop reporter (input ligand: FMN 200 uM),apparent KD of K4 kissing-loop reporter (input ligand: arginine 13.2 mM),apparent KD of K4 kissing-loop reporter (input ligand: none),apparent KD of K4 kissing-loop reporter [1],apparent KD of K4 kissing-loop reporter [2]
CCCUAAAUAUGCAGUGAUGUUGCAACUGAUACCAGUAUCGAAAGAUACCCUUGGCAGCGGAAAACCGCUACGUAAUUUAAAAGGG [Ex Theophylline A K4 19],243 nM,327 nM,356 nM,385 nM,243 nM
GGAUAGGAUAGAGGAUAUGGCUUACGCAGAAAUAACUUGUUGUGUUUAUCCAUAGGGAGUGAUGUUCCAGAAGGCUGUCCUAUCG [MatMod 18 - Jieux - Exclusion - FMN B],732 nM,204 nM,266 nM,240 nM,183 nM
AACUGUCAAGGACAACAUUACUGCAGUGAUACCAGCAUCGAAAGAUGCCCUUGGCAGCACUAACUUGCAGUGAUGUUGCAAGUAA [BrourdMod 4 - Jieux - Exclusion - Theophylline A],313 nM,245 nM,256 nM,225 nM,264 nM
GACUCUCUCGUCAGGAAGACGCACUCAGCCAAGGAUAUUAUGUUUUUAAGAAGGUGGACUUAUGCCAGUGAUGUUGGCAGAUACG [theeternabot_sameState_KL_FMN_A_29],50.6 nM,86.1 nM,67.6 nM,99.9 nM,57.1 nM
UCGUUAAAAGCGGCCGCCACUGCCAGAGCUCUGGAAAAGGCUGGAGUGAUGUUCUGCCUAGUAGACAGGACCGGGCUAUUGGAUU [theeternabot_sameState_KL_Trp_B_29],667 nM,422 nM,609 nM,588 nM,594 nM
AUUUAAUUAACUGAUACCAGACUUUAUGUAUUUAUUAAAACUAGUGAUGUUAGUUUAUCUGUCCCUUGGCAGCAGUUUCUACUUA [JR_Nu_ExcTheophyB_Sub021],93.5 nM,113 nM,105 nM,105 nM,83.4 nM
ACGUCCGGAUUGAUCGUGGGCAUGGUCGAUACCAGUAGUUUAAUCUACCCUUGGCAGCGACAUGAGUGAUGUUCAUGUGCGGUGA [#14 K4 Theophylline A Exclusion],194 nM,191 nM,188 nM,402 nM,200 nM
AAAAUAAACCAGUGAUGUUGGUGUCUAGAUACCAGCGACAAAAGUCGCCCUUGGCAGCUACGGACGUACAAAAUAAGUACGUCCU [MatMod 9 - Jieux - Same State - Theophylline A],468 nM,353 nM,472 nM,481 nM,405 nM
GGAGAGGUCUUGUUUGGAUGUGUUUAAUGGCGAGGACCGGUACGGCCGCCACUCGGGUGAUGUUAGUGAUGUUGAUGUAGUGAUG [wzwmullin],103 nM,76.1 nM,93.4 nM,149 nM,89.5 nM
AACACUCAGAGAGUGAUGUUCUCUAAUAAACGAGGACCGGUACGGCCGCCACUCGAAUAAGAGUGAGUCCUACGAAAAGUAGGAC [Omei inspired 5 #OpenEnded],790 nM,726 nM,1050 nM,1120 nM,224 nM
AAUGUACAAGUGAUGUUUGUACUUUCCGAAGGAGCGUCAAAUAAGACAGGUAGGUCGCGGAUACUCUAAAUAAUCAGGUCAUUAA [JR_ExcArginiA_Sub019],89.4 nM,88 nM,88.9 nM,87.2 nM,85 nM
AGAACUGUCUGAGAUACCAGCCAGGAAGUGAUGUUUCCAGCUCCACGAAAGUGGAGCCAUGGCCCUUGGCAGCUCAGACAGUUCA [Omei KL Theo B SS A v5],150 nM,141 nM,147 nM,105 nM,154 nM
AUGGGUCCACGAAGGAGCGCCGUGCAGUGAUGUUGCAGUUAGAUCCAGUGAUGUUUGGGCCGGCAGGUAGGUCGCGUGGAUUUAU [Exclusion Arginine B GF 22],249 nM,199 nM,249 nM,243 nM,222 nM
AAUUCAGUGAUGUUGGAAGGCAGGCGGGAUACCAGCGGAGAAUAACGCCCUUGGCAGCCCAAAUAUCCCAAAUAGAUAAUAGUUC [Same State - Theophylline A (Freestyle 2)],474 nM,353 nM,481 nM,475 nM,450 nM
UAUAGAGUGACGGCCGCCACUAUUGUGAUUUAAUUGUUAGAGUGAUGUUUUGUUGUUUGAUUUUGUAGGACCGGGUUAUAUGUUA [ecewzmullin],1050 nM,768 nM,976 nM,854 nM,802 nM
UAGUCAUACAGAGGAUAUCGUAUGAGUGAUGUUCAUACGACAUAAUCAAAUUGUAUUGAUGUUCGACGAGAAGGCUGUAUGACUA [FMN B Ex t1],221 nM,103 nM,124 nM,117 nM,124 nM
AAAUAAAGCAGUCACCCAGUGAUGUUGGAAGGAGCGUGCGAAAGCACAGGUAGGUCGCCGAUAGGACAAAGUCCAAGUGGCUGCA [#SwitchBubble 30 #K4Early],625 nM,437 nM,487 nM,297 nM,318 nM
AAAGGCAAAGCCCGAGUGAUGUUCGACGAUACCAGCCUCGAUAGAGGCCCUUGGCAGCGUAAAUGAUCAUGAAGCCAAGGAAUAA [whbob_Ex_Theo_A_th67],352 nM,302 nM,352 nM,260 nM,313 nM
UUGAGACGUCAAGGAUAUUCCGCGGAAGGGCGAGCGACCCAAGUGUGAGUGAUGUUCAGCAAGCCGGAAGAAGGUGAAUUUCACC [theeternabot_sameState_KL_FMN_B_26],799 nM,628 nM,958 nM,1050 nM,937 nM
CAUUCACGGCGAGUCGAAGUGAUGUUUCGGCGAGGACCGGUACGGCCGCCACUCGGAUAAAUAUAGCUUAUCACAUACACUUUCG [theeternabot_exclusion_KL_Trp_A_27],159 nM,128 nM,140 nM,186 nM,132 nM
CCGGCCCGGCCGGAUACCAGUGCGCCGCUGGGAACCGCGGGCCCAGAGUGAUGUUCGGGACACCCUUGGCAGCCGCCUGGGUCGC [#2 Same State - Theophylline B Attempt #24 (HarryS)],398 nM,140 nM,247 nM,217 nM,240 nM
